Changes are numbered by the printed parent chain.
B1: E. coli MscL (EcoMscL) M42C (natural protein, UniProt P0A742 1-136, looked up)
chain: MSIIKEFREFAMRGNVVDLAVGVIIGAAFGKIVSSLVADIICPPLGLLIGGIDFKQFAVTLRDAQGDIPAVVMHYGVFIQNVFDFLIVAFAIFMAIKLINKLNRKKEEPAAAPAPTKEEVLLTEIRDLLKEQNNRS
modifications: Alexa Fluor 488 and/or Alexa Fluor 568 maleimide on the introduced cysteine (stochastic labelling)
notes: Mechanosensitive channel of large conductance MscL, Escherichia coli, single cysteine mutant on TM1; The MscL gene was cloned into pQE-32 as a BamHI-SalI fragment; 5% labeled channels were mixed with 95% unlabeled ones for reconstitution; also called mechanosensitive channel of large conductance; source: E. coli M15, purified from DDM solubilized membranes (TALON, FPLC Superdex 200), …
B2: E. coli MscL (EcoMscL) V82C (natural protein, UniProt P0A742 1-136, looked up)
chain: B1 chain with C42M, V82C
modifications: Alexa Fluor 488 and/or Alexa Fluor 568 maleimide on the introduced cysteine (stochastic labelling)
notes: Mechanosensitive channel of large conductance MscL, Escherichia coli, single cysteine mutant on TM2; Same construct as m1 apart from the cysteine position; Pentamer on cited work; some hexamers not excluded; source: E. coli M15, purified from DDM solubilized membranes (TALON, FPLC Superdex 200), reconstituted into liposomes; not shown: His6, N-terminal, kept
B3: E. coli MscL (EcoMscL) A27C (natural protein, UniProt P0A742 1-136, looked up)
chain: B1 chain with A27C, C42M
modifications: Alexa Fluor 488 and/or Alexa Fluor 568 maleimide on the introduced cysteine (stochastic labelling)
notes: Mechanosensitive channel of large conductance MscL, Escherichia coli, single cysteine mutant on TM1; Same construct as m1 apart from the cysteine position; Pentamer on cited work; some hexamers not excluded; source: E. coli M15, purified from DDM solubilized membranes (TALON, FPLC Superdex 200), reconstituted into liposomes; not shown: His6, N-terminal, kept
B4: E. coli MscL (EcoMscL) Y75C (natural protein, UniProt P0A742 1-136, looked up)
chain: B1 chain with C42M, Y75C
modifications: Alexa Fluor 488 and/or Alexa Fluor 568 maleimide on the introduced cysteine (stochastic labelling)
notes: as for B2
B5: E. coli MscL (EcoMscL) Q80C (natural protein, UniProt P0A742 1-136, looked up)
chain: B1 chain with C42M, Q80C
modifications: Alexa Fluor 488 and/or Alexa Fluor 568 maleimide on the introduced cysteine (stochastic labelling)
notes: as for B2
B6: E. coli MscL (EcoMscL) I25C (natural protein, UniProt P0A742 1-136, looked up)
chain: B1 chain with I25C, C42M
modifications: Alexa Fluor 488 and/or Alexa Fluor 568 maleimide on the introduced cysteine (stochastic labelling)
notes: Mechanosensitive channel of large conductance MscL, Escherichia coli, single cysteine mutant on TM1 near the pore constriction; Same construct as m1 apart from the cysteine position; Pentamer on cited work; some hexamers not excluded; source: E. coli M15, purified from DDM solubilized membranes (TALON, FPLC Superdex 200), reconstituted into liposomes; not shown: His6, N-terminal, kept

Target: the molecule itself
Assay: FRET or BRET; single molecule FRET (TIRF) between one AF488 donor and one AF568 acceptor on the single cysteines of two subunits of one channel; channels in ~50 nm POPC liposomes with 2% BPE, immobilised on a coverslip by biotin-neutravidin; without and with 25% LPC

Binding result, binds:
B1, B2, B3, B4, B5, B6
